Test results: article PMC2913173 (Journal of molecular biology, 2009)
eCPX = enhanced circularly permuted OmpX display protein

B1: Bak(24–117): construct containing amino acids 24–117 of Bak (helices α1 to α4), eCPX fusion (protein)
chain: EEQVAQDTEEVFRSYVFYRHQQEQEAEGVAAPADPEMVTLPLQPSSTMGQVGRQLAIIGDDINRRYDSEFQTMLQHLQPTAENAYEYFTKIATS
modifications: left off: eCPX (enhanced circularly permuted OmpX display protein), C-terminal, kept
B2: Bak(24–89): eCPX fusion protein comprising helices α1, α2, and α3 of Bak (protein)
chain: EEQVAQDTEEVFRSYVFYRHQQEQEAEGVAAPADPEMVTLPLQPSSTMGQVGRQLAIIGDDINRRY-eCPX

Biological target: Bcl-xL (Homo sapiens, UniProt Q07817, DEL46-85)
Test: Cell surface display equilibrium binding assay with flow cytometry
Settings: cells displaying Bak–eCPX fusions, biotinylated Bcl-xL and SAPE

| Molecule | Binding to Bcl-xL in words (fluorescence of cell population) |
| --- | --- |
| B1 | essentially no binding to Bcl-xL |
| B2 | fluorescence only slightly above background levels |
